Experimental findings from patent US20110251106A1 (NEXTERA, published 2011) are described below.

For the assay, the target named is T1, Streptavidin on Dynabeads MyOne-Streptavidin magnetic beads (UniProt P22629 37-163, limits assumed).
T1 construct: also called SA; SA beads
Description: streptavidin bead capture of virions, anti-M13 MAb-HRP detection.

T1 sequence (P22629 37-163 limits assumed): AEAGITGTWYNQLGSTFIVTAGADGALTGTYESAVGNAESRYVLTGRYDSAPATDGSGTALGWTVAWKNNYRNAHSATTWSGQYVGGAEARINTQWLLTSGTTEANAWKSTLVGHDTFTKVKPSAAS

B1: wild type pVII on M13K07 wt helper phage virions (other)
chain: MEQVADFDTIYQAMIQISVVLCFALGIIAGGQR
notes: Control virion with no tag on pVII; Also used here for phagemid virions packaged with wt M13K07; also called wildtype M13K07; wt pVII
Take B1: the binding result is recorded as “no binding”.
